{"source": "paper PMC2935699", "origin": "cited, not measured here", "key": {"[1]": {"biological_target": "Galanin receptor 1 (UniProt P47211)", "sequence (P47211 whole entry)": "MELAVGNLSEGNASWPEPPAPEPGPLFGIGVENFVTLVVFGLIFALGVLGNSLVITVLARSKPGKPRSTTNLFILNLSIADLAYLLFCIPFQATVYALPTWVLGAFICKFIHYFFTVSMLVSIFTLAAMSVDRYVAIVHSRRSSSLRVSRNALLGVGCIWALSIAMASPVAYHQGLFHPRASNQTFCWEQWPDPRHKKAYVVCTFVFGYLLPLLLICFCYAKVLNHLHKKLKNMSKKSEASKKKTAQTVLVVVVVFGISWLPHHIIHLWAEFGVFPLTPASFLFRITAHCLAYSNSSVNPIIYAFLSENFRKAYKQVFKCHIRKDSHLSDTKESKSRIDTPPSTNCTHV"}, "[2]": {"biological_target": "Galanin receptor 2 (UniProt O43603)", "sequence (O43603 whole entry)": "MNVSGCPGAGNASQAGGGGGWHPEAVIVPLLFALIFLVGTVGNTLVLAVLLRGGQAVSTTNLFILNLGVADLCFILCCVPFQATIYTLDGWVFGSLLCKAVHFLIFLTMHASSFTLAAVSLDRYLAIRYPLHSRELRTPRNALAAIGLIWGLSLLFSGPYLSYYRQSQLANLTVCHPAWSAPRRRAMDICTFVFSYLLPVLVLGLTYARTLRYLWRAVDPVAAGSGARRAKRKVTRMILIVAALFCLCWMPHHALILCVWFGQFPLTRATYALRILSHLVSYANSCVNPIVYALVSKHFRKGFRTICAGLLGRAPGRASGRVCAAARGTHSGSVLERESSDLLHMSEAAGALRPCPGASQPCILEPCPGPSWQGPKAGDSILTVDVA"}, "[3]": {"biological_target": "Galanin receptor 3 (UniProt O60755)", "sequence (O60755 whole entry)": "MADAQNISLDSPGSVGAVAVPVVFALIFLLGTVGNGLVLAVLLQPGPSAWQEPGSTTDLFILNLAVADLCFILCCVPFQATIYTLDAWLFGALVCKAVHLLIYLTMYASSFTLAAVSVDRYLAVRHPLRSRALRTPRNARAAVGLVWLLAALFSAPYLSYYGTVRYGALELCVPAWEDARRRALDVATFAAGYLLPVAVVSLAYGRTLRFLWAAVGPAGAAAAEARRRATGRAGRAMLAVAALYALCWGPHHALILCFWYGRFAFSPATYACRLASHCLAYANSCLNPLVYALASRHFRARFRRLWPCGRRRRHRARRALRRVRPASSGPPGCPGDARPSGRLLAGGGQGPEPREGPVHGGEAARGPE"}}}
{"substance": "Galanin 1-16 1-16 (from UniProt P22466)", "values": [{"measurement": "Ki", "setting": "[1]", "result": 4.8, "unit": "nM"}, {"measurement": "Ki", "setting": "[2]", "result": 5.66, "unit": "nM"}, {"measurement": "Ki", "setting": "[3]", "result": 49.6, "unit": "nM"}]}
